Measurements published in US20260151501A1, “ANTIBODY-DRUG CONJUGATE COMPRISING ANTI-CLAUDIN-18.2 ANTIBODY, AND THERAPEUTIC USE THEREOF FOR CANCER” (ABTIS CO., LTD., priority 2022, published 2026).

Tests used:
[1] = biological target: claudin18.2 protein (CLDN18.2) on CLDN18.2-positive cancer cell lines (MIA PaCa-2~CLDN18.2, SNU601, PATU8988S, NUGC-4) (UniProt P56856); assay: cell-based ELISA (OD 450 nm), MIA PaCa-2 (CLDN18.2+) cells
[2] = biological target: CLDN18.2~VLP (virus-like particle) expressing the claudin18.2 protein, CSB-MP005498HU (A5), CUSABIO (UniProt P56856); assay: indirect ELISA (OD 450 nm) on coated CLDN18.2 VLP, regression in GraphPad Prism
[3] = biological target: claudin18.2 protein (CLDN18.2) on CLDN18.2-positive cancer cell lines (MIA PaCa-2~CLDN18.2, SNU601, PATU8988S, NUGC-4) (UniProt P56856); assay: cell-based ELISA, MIA PaCa-2 (CLDN18.2+) cells; given as Kd, text calls it EC50
[4] = biological target: claudin18.2 protein (CLDN18.2) on CLDN18.2-positive cancer cell lines (MIA PaCa-2~CLDN18.2, SNU601, PATU8988S, NUGC-4) (UniProt P56856); assay: cell-based ELISA (OD 450 nm), SNU601 (CLDN18.2+) cells; set-up: unit not given here
[5] = biological target: claudin18.2 protein (CLDN18.2) on CLDN18.2-positive cancer cell lines (MIA PaCa-2~CLDN18.2, SNU601, PATU8988S, NUGC-4) (UniProt P56856); assay: cell-based ELISA, PATU8988S (CLDN18.2+) cells; given as Kd, text calls it EC50
[6] = biological target: claudin18.2 protein (CLDN18.2) on CLDN18.2-positive cancer cell lines (MIA PaCa-2~CLDN18.2, SNU601, PATU8988S, NUGC-4) (UniProt P56856); assay: cell-based ELISA (OD 450 nm), PATU8988S (CLDN18.2+) cells
[7] = biological target: claudin18.2 protein (CLDN18.2) on CLDN18.2-positive cancer cell lines (MIA PaCa-2~CLDN18.2, SNU601, PATU8988S, NUGC-4) (UniProt P56856); assay: cell-based or functional assay
[8] = test system: MIA PaCa-2 (CLDN18.2-) cell line; assay: Cell-based ELISA binding to MIA PaCa-2 (CLDN18.2-) cells; settings: CLDN18.2 negative cell line
Protocol: (§1) OD value measurement through ELISA was performed by measuring the absorbance at 450 nm using a UV-Vis spectrometer.
(§2) Four types of cell lines (MIA PaCa-2˜CLDN18.2, PATU8988S, parental MIA PaCa-2 (CLDN18.2-), and SNU601) were prepared. At this time, MIA PaCa-2˜CLDN18.2 and PATU8988S are CLDN18.2-positive pancreatic cancer cell lines. MIA PaCa-2 (CLDN18.2-) is a CLDN18.2-negative pancreatic cancer cell line. SNU601 is a CLDN18.2-positive gastric cancer cell line.
(§3) The prepared cell lines were cultured in DMEM containing 10% FBS and 1% penicillin/streptomycin (MIA PaCa-2˜CLDN18.2, MIA PaCa-2 (CLDN18.2-)), RPMI1640 containing 10% FBS and 1% penicillin/streptomycin (SNU601), and DMEM containing 5% FBS, 5% serum, 1% penicillin/streptomycin, and 2 mM L-glutamine (PATU8988S) in an incubator under the conditions of 37° C. and 5% CO2.
(§4) The prepared cell lines were plated on 96-well plates for culture, and then treated with each of antibody-A, ADC-A, antibody-B, and ADC-B. Thereafter, cell-based ELISA was performed, and OD values were measured.
(§5) The measured results were used for a regression analysis in GraphPad PRISM® 9.0 software to calculate EC50 and Bmax. The cell binding affinity of antibody-A, ADC-A, antibody-B, and ADC-B to each cell line was evaluated based on the calculated values.

PATU8988S cell line = assay: Cell-based ELISA binding to PATU8988S cells; settings: PATU8988S (CLDN18.2+)
Protocol: as §1, §2, §3, §4, §5

[9] = test system: MIA PaCa-2˜CLDN18.2 cell line; assay: Cell-based ELISA binding to MIA PaCa-2˜CLDN18.2 cells
Protocol: as §1, §2, §3, §4, §5

SNU601 cell line = assay: Cell-based ELISA binding to SNU601 cells; settings: SNU601 (CLDN18.2+)
Protocol: as §1, §2, §3, §4, §5

[10] = biological target: T1, claudin18.2 protein (CLDN18.2) (Homo sapiens, UniProt P56856); assay: Indirect ELISA binding to CLDN18.2 VLP; settings: CLDN18.2 (antigen protein) VLP, OD at 450 nm
T1 construct: purchased CUSABIO TECHNOLOGY LLC CSB-MP005498HU (A5)
Protocol: as §1
To confirm the binding strength to an antigen, a CLDN18.2˜VLP (virus-like particle) expressing the claudin18.2 protein (CLDN18.2) was prepared. At this time, CLDN18.2˜VLP is CSB-MP005498HU (A5) from CUSABIO TECHNOLOGY LLC.
After a 96-well plate was coated with the CLDN18.2 VLP for ELISA and treated with each of antibody-A and ADC-A, indirect ELISA was performed to measure OD values.
The measured results were used for a regression analysis in GraphPad PRISM® 9.0 software to calculate EC50 and Bmax. The antigen binding affinity of antibody-A, ADC-A, antibody-B, and ADC-B were evaluated based on the calculated values.

Sequence of Antibody-B (zolbetuximab antibody) (VH): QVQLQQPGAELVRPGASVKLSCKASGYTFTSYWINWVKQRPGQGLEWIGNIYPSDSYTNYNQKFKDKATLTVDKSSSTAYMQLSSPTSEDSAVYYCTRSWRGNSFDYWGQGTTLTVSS
Sequence of Antibody-B (zolbetuximab antibody) (VL): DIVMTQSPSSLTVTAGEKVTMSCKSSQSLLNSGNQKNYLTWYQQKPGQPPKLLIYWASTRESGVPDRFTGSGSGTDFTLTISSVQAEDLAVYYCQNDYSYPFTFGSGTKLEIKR
Sequence of ADC-B (antibody-B conjugated with MMAE) (VH): as the sequence (VH) above
Sequence of ADC-B (antibody-B conjugated with MMAE) (VL): as the sequence (VL) above

ADC-B (antibody-B conjugated with MMAE) showed a Bmax [1] of 3.33, a Bmax [2] of 2.87 and a Kd [3] of 0.065 µg/mL. For the same substance, the Bmax [4] was 2.8, the Kd [5] was 10.5 nM and the Bmax [6] was 2.33. For the same substance, the IC50 (nM), cell viability (CellTiter-Glo), MIA PaCa-2 (CLDN18.2+) [7] was 2.12 nM, the IC50 (nM), cell viability (CellTiter-Glo), NUGC4 (CLDN18.2+) [7] was 20 nM and the IC50 (nM), cell viability (CellTiter-Glo), PATU8988S (CLDN18.2+) [7] was 7.19 nM. The IC50 (nM), cell viability (CellTiter-Glo), SNU601 (CLDN18.2+) [7] was 10.4 nM.

With Antibody-B (zolbetuximab antibody) the Bmax [1] was 3.05, the Bmax [2] was 2.13 and the Bmax [4] was 1.7. For the same substance, the Kd [5] was 12.5 nM and the Bmax [6] was 1.21.

With “zolbetuximab [Antibody-B, reference compound]” the “binding to parental MIA PaCa-2” value [8] was “none of the test substances bound”, the Bmax (PATU8988S cell line) was 1.214 and the Bmax [9] was 3.053. The Bmax (SNU601 cell line) was 1.701 and the Bmax [10] was 2.134.
